{
  "source": "patent US10344330B2",
  "about": "“Glatiramer acetate response biomarker mRNA potency assay” (Mylan Inc., priority 2013, dated 2019)",
  "molecules": {"B1": {"name": "MBP: myelin basic protein, a negative control (protein, UniProt P02686 1-304, looked up)", "Myelin basic protein": "MGNHAGKRELNAEKASTNSETNRGESEKKRNLGELSRTTSEDNEVFGEADANQNNGTSSQDTAVTDSKRTADPKNAWQDAHPADPGSRPHLIRLFSRDAPGREDNTFKDRPSESDELQTIQEDSAATSESLDVMASQKRPSQRHGSKYLATASTMDHARHGFLPRHRDTGILDSIGRFFGGDRGAPKRGSGKDSHHPARTAHYGSLPQKSHGRTQDENPVVHFFKNIVTPRTPPPSQGKGRGLSLSRFSWGAEGQRPGFGYGGRASDYKSAHKGFKGVDAQGTLSKIFKLGGRDSRSGSPMARR"}},
  "key": {"[1]": {"tested_on": "mIL-4 mRNA in primary LN cells", "test": "mIL-4 mRNA by real-time PCR in stimulated LN cells of immunized (SJL/J×BALB/C)F1 mice (Example I)", "format": "cell-based, mouse", "settings": "GA 10, MBP 10, ConA 2.5 μg/mL; for mIL-4 mRNA Level: Experiment 1, GA-immunized (SJL/J×BALB/C)F1; for mIL-4 mRNA: reference 18S rRNA", "procedure": "For each of the three experiments summarized in Table 1, female (SJL/J×BALB/C) F1 hybrid (Jackson Laboratory) mice were immunized by footpad injection with either 250 μg GMA (Mylan Pharmaceuticals, Inc.) and CFA (Sigma Aldrich), or Mannitol and CFA (as a negative control). The GA solution was diluted to 5 mg/mL with Dulbecco's Phosphate-buffered saline. A dose solution was then prepared by mixing the diluted GA solution (5 mg/mL) and CFA (1:1) until well-emulsified. Each mouse received a total injection volume of 0.1 mL (250 μg GA). Animals were immunized on Day 0. Immunized animals were sacrificed via cervical dislocation on Day 10 following immunization. […] The LN were washed 3 times with −5 mL of RPMI medium, and the LN cells isolated by pressing the LN with a syringe plunger. […] The cell suspension was centrifuged at about 200×g for 10 minutes at about 4° C. and re-suspended in ice cold enriched DCCM-1 medium. The LN cells (2.5×10^6 cells/cm^2) were plated in the wells of a 48-well tissue culture plate and stimulated with GA or controls.\nExpression of cytokine mRNA was quantitatively analyzed using a Real-Time PCR system (7500, Applied Biosystems).\n(DCCM1 from Beit Haemek Ltd.; Cat. No. 05 010 1A). There was no MBP treatment for the 2-hour groups.\nGroup 1B animals were female (SJL/J×BALB/C) F1 hybrid (Jackson Laboratory) mice immunized by footpad injection with either 250 μg GA and CFA, or Mannitol and CFA (as a negative control). A dose solution was prepared by mixing a diluted GA solution (5 mg/mL) and CFA (1:1). Each mouse received a total injection volume of […] (250 μg GA). Animals were immunized on Day 0. Immunized animals were sacrificed via cervical dislocation on Day 10 following immunization. Lymph nodes from immunized mice were removed and isolated. LN cells (2.5×10^6 cells/cm^2) were plated in the wells of a 48-well tissue culture plate for stimulation with GA.\nExpression of cytokine mRNA was quantitatively analyzed 4 and 6 hours after using a Real-Time PCR system (7500, Applied Biosystems)."}, "[2]": {"tested_on": "IL-12 (total) secreted by LN cells", "test": "IL-12 (total) secretion by GA-stimulated LN cells, MSD 9-plex ELISA (Example II)", "format": "cell-based, mouse", "settings": "21 hr", "procedure": "Animals at 8 weeks of age were immunized by injection into four footpads using a 1 mL syringe with a 27-G, 1⁄2-inch needle. […] Ten days post-immunization, immunized animals were sacrificed via cervical dislocation. […] The LN cells were isolated by pressing the LN with the plunger end of a sterile syringe. […] Trypan blue exclusion method was used to determine the cell density of viable cells in the suspension. […] Cat. […] LN cells were plated into a 24-well tissue culture plate for drug stimulation. […] Cell debris was removed by centrifugation at ca. 200×g for 10 minutes at 4° C. Cytokines secreted by treated cells were determined on the day of collection by ELISA using mouse TH 1/TH 2 9-Plex Tissue Culture Kit (Meso Scale Discovery; Cat No. […]-2, Lot #: K0032839) which detects Th1 cytokines (IFN-γ, IL-2, IL-12, IL-1β, TNF-α, CXCL1) and Th2 cytokines (IL-4, IL-5 and IL-10). For IFN-γ, culture media also were assayed at 45 hours using mouse IFN-γ Tissue Culture Kit (Meso Scale Discovery; Cat No. […] For the positive control, 0.5 mL of LN cells (5×10^6 cells/well) were treated with 0.5 mL of ConA (5 μg/mL). For the negative control, 0.5 mL of LN cells (5×10^6 cells/well) were treated with 0.5 mL of MBP (20 μg/mL). The LN cells with mock stimulation (enriched DCCM1 medium) were used to monitor the background level of a cytokine. For the cytokine assays, calibration standards or samples were incubated in the MULTI-SPOT or the SINGLE-SPOT plate and each cytokine bound to its corresponding capture antibody. All test samples were run in duplicate. The amount of each cytokine on its distinct spot was quantified using a cytokine-specific detection antibody labeled with MSD SULFO-TAGTM reagent. Electrochemiluminescent signals from immobilized SULFO-TAGTM-labeled complexes on each spot from each well were captured by the MSD SECTOR Imager 6000, which produces a signal directly proportional to the amount of captured cytokine in a test sample. The levels of cytokines in test samples were derived by interpolation from calibration curves with calibration standards of known concentrations using reagents provided with the MSD kits. Kits were used according to the manufacturer's protocols. […] Data are expressed as a response ratio of cytokine concentration in treated cell medium to control DCCM1 medium."}, "[3]": {"tested_on": "mouse IL-2 mRNA in primary LN cells", "test": "Mouse IL-2 mRNA in LN cells of Copaxone-, GMA- or mannitol-immunized SJL/J mice stimulated with Copaxone and GMA lots, normalized to Actβ or GAPDH (Example V)", "format": "cell-based", "settings": "10 μg/mL", "procedure": "(§1) A real-time polymerase chain reaction method was used to measure the expression of cytokine mRNA in GA-stimulated LN cells from GA-immunized SJL/J mice. Normalization of expression with two different housekeeping genes, GAPDH and β-actin, was tested.\n(§2) Each group consisted of six female SJL/J mice immunized by injection in all four footpads with a total dose of 250 μg of one lot of GA, or mannitol and no GA. Three Copaxone batches and three GMA batches were used to immunize the mice. CFA was included in both GA and mannitol immunizations. Ten days following immunization, LN cell samples isolated from the immunized mice were each stimulated with a concentration of a Copaxone lot and a GMA lot. A positive control of 2.5 μg/mL ConA treated LN cells and a negative control of 10 μg/mL MBP treated cells were included in each group.\n(§3) Therefore, the Q-PCR analysis was repeated on the samples, measuring levels of IL-2, IL-4, IL-5, and IL-13, using both GAPDH and β-actin as reference gene."}, "[4]": {"tested_on": "mouse IL-13 mRNA in primary LN cells", "test": "Mouse IL-13 mRNA in LN cells of immunized SJL/J mice stimulated with Copaxone and GMA lots, normalized to Actβ or GAPDH (Example V)", "format": "cell-based", "settings": "10 μg/mL; for 1L-13 mRNA Fold Change: normalized to Actβ; for IL-13 mRNA Fold Change: normalized to GAPDH", "procedure": "as §1, §2, §3"}, "[5]": {"tested_on": "IL-1b secreted by LN cells", "test": "IL-1b secretion by GA-stimulated LN cells, MSD 9-plex ELISA (Example II)", "format": "cell-based, mouse", "settings": "21 hr"}, "[6]": {"settings": "BALB/cByJ, immunized GA Intraplantar"}, "[7]": {"settings": "BALB/cByJ, immunized GA Lower Limb"}, "[8]": {"settings": "C57BL10J, immunized GA Lower Limb"}},
  "data": [
    {"molecule": "B1", "values": [
      {"measurement": "mIL-4 mRNA Level", "setting": "[1]; 4 hour post stimulation", "result": 0.8, "unit": "fold change vs control"},
      {"measurement": "mIL-4 mRNA Level", "setting": "[1]; 6 hour post stimulation", "result": 0.6, "unit": "fold change vs control"},
      {"measurement": "mIL-4 mRNA Level", "setting": "[1]; 24 hour post stimulation", "result": 1.1, "unit": "fold change vs control"},
      {"measurement": "mIL-4 mRNA", "setting": "[1]; Group 1B (GA + CFA), 4 hours post-stimulation", "result": 0.5, "unit": "fold change vs control"},
      {"measurement": "mIL-4 mRNA", "setting": "[1]; Group 1B (GA + CFA), 6 hours post-stimulation", "result": 0.3, "unit": "fold change vs control"},
      {"measurement": "mIL-4 mRNA", "setting": "[1]; Group 2B (Mannitol + CFA), 4 hours post-stimulation", "result": 1.4, "unit": "fold change vs control"},
      {"measurement": "mIL-4 mRNA", "setting": "[1]; Group 2B (Mannitol + CFA), 6 hours post-stimulation", "result": 0.8, "unit": "fold change vs control"},
      {"measurement": "IL-12 (total) secretion response ratio (treated cell medium to control DCCM1 medium)", "setting": "[2]; [6]", "result": 1.09},
      {"measurement": "IL-12 (total) secretion response ratio (treated cell medium to control DCCM1 medium)", "setting": "[2]; [7]", "result": 1.04},
      {"measurement": "IL-12 (total) secretion response ratio (treated cell medium to control DCCM1 medium)", "setting": "[2]; BALB/cByJ, immunized Mannitol Intraplantar", "result": 1.05},
      {"measurement": "IL-12 (total) secretion response ratio (treated cell medium to control DCCM1 medium)", "setting": "[2]; C57BL10J, immunized GA Intraplantar", "result": 1.18},
      {"measurement": "IL-12 (total) secretion response ratio (treated cell medium to control DCCM1 medium)", "setting": "[2]; [8]", "result": 1.19},
      {"measurement": "IL-12 (total) secretion response ratio (treated cell medium to control DCCM1 medium)", "setting": "[2]; C57BL10J, immunized Mannitol Intraplantar", "result": 1.13},
      {"measurement": "IL-12 (total) secretion response ratio (treated cell medium to control DCCM1 medium)", "setting": "[2]; CD-1, immunized GA Intraplantar", "result": 1.22},
      {"measurement": "IL-12 (total) secretion response ratio (treated cell medium to control DCCM1 medium)", "setting": "[2]; CD-1, immunized GA Lower Limb", "result": 1.18},
      {"measurement": "IL-12 (total) secretion response ratio (treated cell medium to control DCCM1 medium)", "setting": "[2]; CD-1, immunized Mannitol Intraplantar", "result": 0.99},
      {"measurement": "IL-2 mRNA Fold Change", "setting": "[3]; Group 3 (mice immunized with GA-M2 Mylan GMA), normalized to Actβ", "result": 1.2, "unit": "fold"},
      {"measurement": "IL-2 mRNA Fold Change", "setting": "[3]; Group 3 (mice immunized with GA-M2 Mylan GMA), normalized to GAPDH", "result": 0.7, "unit": "fold"},
      {"measurement": "IL-2 mRNA Fold Change", "setting": "[3]; Group 4 (mice immunized with GA-C2 Copaxone), normalized to Actβ", "result": 0.8, "unit": "fold"},
      {"measurement": "IL-2 mRNA Fold Change", "setting": "[3]; Group 4 (mice immunized with GA-C2 Copaxone), normalized to GAPDH", "result": 1.3, "unit": "fold"},
      {"measurement": "1L-13 mRNA Fold Change", "setting": "[4]; Group ID 3", "result": 0.7, "unit": "fold"},
      {"measurement": "IL-13 mRNA Fold Change", "setting": "[4]; Group ID 3", "result": 0.5, "unit": "fold"},
      {"measurement": "1L-13 mRNA Fold Change", "setting": "[4]; Group ID 4", "result": 1.0, "unit": "fold"},
      {"measurement": "IL-13 mRNA Fold Change", "setting": "[4]; Group ID 4", "result": 1.2, "unit": "fold"},
      {"measurement": "IL-1b secretion response ratio (treated cell medium to control DCCM1 medium)", "setting": "[5]; [6]", "result": 1.15},
      {"measurement": "IL-1b secretion response ratio (treated cell medium to control DCCM1 medium)", "setting": "[5]; [7]", "result": 0.96},
      {"measurement": "IL-1b secretion response ratio (treated cell medium to control DCCM1 medium)", "setting": "[5]; [8]", "result": 1.17},
      {"measurement": "IL-1b secretion response ratio (treated cell medium to control DCCM1 medium)", "setting": "[5]; CD-1, immunized GA Lower Limb", "result": 1.00}
    ]}
  ]
}
